In US20050142568A1 (published 2005):

B2: GST-CRN-1 (other, C. elegans, UniProt Q9N3T2 21-382, looked up)
chain: NEMKAFFGRTVAIDASMCLYQFLIAVRQDGSQLQSEDGETTSHLMGMLNRTVRMFENGVKPVYVFDGKPPDMKGGELEKRSERRAEAEKALTEAKEKGDVKEAEKFERRLVKVTKQQNDEAKRLLGLMGIPVVEAPCEAEAQCAHLVKAGKVFGTVTEDMDALTFGSTVLLRHFLAPVAKKIPIKEFNLSLALEEMKLSVEEFIDLCILLGCDYCGTIRGVGPKKAVELIRQHKNIETILENIDQNKYPPPEDWPYKRARELFLNPEVTKPEEVELTWKEADVEGVIQFLCGEKNFNEERIRNALAKLKTSRKSGTQGRIDSFFGNSTKVTCVTAATKRKAEEAEKAKKGAKKGGPPKKRAK
notes: also called CRN-1 GST-fusion protein; not shown: glutathione S-transferase tag encoded by vector pGEX4T-2
B5: GST-NUC-1 (other, C. elegans, UniProt Q17778 22-375, looked up)
chain: AFSCKDQSGNDVDWFAVYKMPIEKDDGSVTGLAGGVAWYYVDVNKKGTLTPSAKTLDDNDQAIAYTLQQYYDKQNDKTIFHVMYNDEPWGSKSTSGIKLEEILSNRVYSNYTHEDDSTSTAFGHTKGTIFFDGTSGVWLVHSVPLFPNPTKYEYPVSGHDYGQTMLCMTFKYAQLKSIGTQLFFNRPNIYSSNLPTNMAADNADLAKAIAGQYQKGQPFQSVIELETMAGYSFTNFAKSKEFNADLYDTLVAPTLKTDLVVETWRRGSEIPLDCKLTYHANDALSIHVGSTTAFSYTKDHSKMAHSADMTKPWVCIGDINRMTSQYVRGGGTTCISSSFLWKAYSVIATQNNCA
notes: also called NUC-1 GST-fusion protein; not shown: glutathione S-transferase tag encoded by vector pGEX4T-2
B6: ^35S-Methionine labeled CRN-6 (enzyme, C. elegans, UniProt P34508-2 18-373, looked up)
chain: AYQCKDNNGSNVDWFVFYKLPHLWNHPDNVPISNGTGFLYFDVNNKNWKLMPQGMDVENNAVYYTLQQYYNSNMNTTFSYMYNDEWPDSTIWSNSSGHAKGVTVFDQYTGFWMIHSIPKFPSKDMFRFPSNAHYYGQMGICISYNTVSLATIAQQLFYYNTFTYQFNLPQSFANQFPVLSQLKNKEYNKSPPLTSTKVLKSLGGQHFRHFAKTGEWGKDLYSDFVGPTLKSSIKVETWNHQSGDEYNLPSVCDPNHVQSTMSAKYIRLPYAIDYSSYEDHSKFVVAYSESSSKPPIPYVCIGDINRQSHQIHRGGGTMCIYDQETYFQFANIISETVPCTKATAEKVDALANNRYF
modifications: 35S-methionine labelled

Columns and labels:
Assay in all cases: GST pull-down, 35S-Met protein vs GST fusion; - means no detectable binding (footnote a)
GST-CRN-6 = target: T1, GST-CRN-6 (C. elegans, UniProt P08515 1-218 = GST; P34508 1-373)
T1 construct: Two crn-6 cDNAs (700 bp and 1.1 kb) were isolated; the longer one made the GST fusion; also called CRN-6 GST-fusion protein
Protocol: (§1) GST fusion protein pull-down assays were performed as described in J. Parrish, H. Metters, L. Chen, D. Xue, Proc. Natl. Acad. Sci. U.S.A. 97, 11916 (2000). Purified GST or GST-fusion proteins (5 μg each) immobilized on glutathione sepharose beads were incubated with ³⁵S-Methionine labeled proteins at 4° C. for 2 hours. The beads were washed extensively and the bound proteins were resolved on a 12% SDS-PAGE and visualized by autoradiography. [0103] cDNAs corresponding to the ORFs were cloned into the pPD129.36 vector via its Nhe I and Xho I sites or the Xho I site alone. Full-length cDNAs were subcloned into the pGEX4T-2 vector for generating GST fusion proteins and for further protein purification and into the pcDNA3.1 vector for in vitro transcription/translation experiments.
(§2) ^aInteractions were evaluated relative to background binding of ³⁵S-Methionine labeled Luciferase to GST-fusion proteins and ³⁵S-Methionine labeled proteins to GST. “−” indicates no detectable binding, “+” indicates an interaction consistently observed above background levels, and “++” indicates a strong interaction. ^bBecause ³⁵S-Methionine labeled CRN-1 binds GST tightly, it was not possible to evaluate interactions between ³⁵S-CRN-1 and various GST-fusion proteins. ND, not determined.

GST-NUC-1 = target: B5
Protocol: as §1, §2

GST-CRN-1 = target: B2
Protocol: as §1, §2

[1] = target: T2, ^35S-Methionine labeled CRN-3 (C. elegans, UniProt G5EBX6 1-876)
T2 sequence: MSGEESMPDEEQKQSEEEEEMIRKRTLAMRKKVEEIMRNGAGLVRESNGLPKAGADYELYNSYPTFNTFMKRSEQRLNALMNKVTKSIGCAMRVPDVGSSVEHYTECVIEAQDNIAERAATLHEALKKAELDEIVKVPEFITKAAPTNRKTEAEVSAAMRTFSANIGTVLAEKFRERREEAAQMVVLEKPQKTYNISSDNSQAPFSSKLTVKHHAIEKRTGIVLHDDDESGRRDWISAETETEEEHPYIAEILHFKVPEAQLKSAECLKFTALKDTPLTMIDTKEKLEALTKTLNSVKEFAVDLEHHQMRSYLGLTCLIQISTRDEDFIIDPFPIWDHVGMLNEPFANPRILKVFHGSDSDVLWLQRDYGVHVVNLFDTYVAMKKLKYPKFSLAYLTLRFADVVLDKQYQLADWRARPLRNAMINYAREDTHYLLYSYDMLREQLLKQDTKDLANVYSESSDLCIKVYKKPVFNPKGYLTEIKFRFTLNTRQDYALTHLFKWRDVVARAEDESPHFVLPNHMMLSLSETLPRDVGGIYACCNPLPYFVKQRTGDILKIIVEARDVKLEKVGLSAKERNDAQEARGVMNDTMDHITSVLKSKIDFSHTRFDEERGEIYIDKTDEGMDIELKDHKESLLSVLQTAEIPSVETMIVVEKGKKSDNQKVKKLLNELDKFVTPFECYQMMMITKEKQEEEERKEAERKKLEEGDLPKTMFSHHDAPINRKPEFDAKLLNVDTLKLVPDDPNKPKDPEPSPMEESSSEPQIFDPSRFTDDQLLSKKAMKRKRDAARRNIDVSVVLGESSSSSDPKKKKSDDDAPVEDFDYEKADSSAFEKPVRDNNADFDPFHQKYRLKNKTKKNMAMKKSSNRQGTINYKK
Protocol: as §1, §2

GST-CRN-3 = target: T3, GST-CRN-3 (C. elegans, UniProt G5EBX6 1-876)
T3 construct: also called CRN-3 GST-fusion protein; not shown: glutathione S-transferase tag encoded by vector pGEX4T-2
T3 sequence: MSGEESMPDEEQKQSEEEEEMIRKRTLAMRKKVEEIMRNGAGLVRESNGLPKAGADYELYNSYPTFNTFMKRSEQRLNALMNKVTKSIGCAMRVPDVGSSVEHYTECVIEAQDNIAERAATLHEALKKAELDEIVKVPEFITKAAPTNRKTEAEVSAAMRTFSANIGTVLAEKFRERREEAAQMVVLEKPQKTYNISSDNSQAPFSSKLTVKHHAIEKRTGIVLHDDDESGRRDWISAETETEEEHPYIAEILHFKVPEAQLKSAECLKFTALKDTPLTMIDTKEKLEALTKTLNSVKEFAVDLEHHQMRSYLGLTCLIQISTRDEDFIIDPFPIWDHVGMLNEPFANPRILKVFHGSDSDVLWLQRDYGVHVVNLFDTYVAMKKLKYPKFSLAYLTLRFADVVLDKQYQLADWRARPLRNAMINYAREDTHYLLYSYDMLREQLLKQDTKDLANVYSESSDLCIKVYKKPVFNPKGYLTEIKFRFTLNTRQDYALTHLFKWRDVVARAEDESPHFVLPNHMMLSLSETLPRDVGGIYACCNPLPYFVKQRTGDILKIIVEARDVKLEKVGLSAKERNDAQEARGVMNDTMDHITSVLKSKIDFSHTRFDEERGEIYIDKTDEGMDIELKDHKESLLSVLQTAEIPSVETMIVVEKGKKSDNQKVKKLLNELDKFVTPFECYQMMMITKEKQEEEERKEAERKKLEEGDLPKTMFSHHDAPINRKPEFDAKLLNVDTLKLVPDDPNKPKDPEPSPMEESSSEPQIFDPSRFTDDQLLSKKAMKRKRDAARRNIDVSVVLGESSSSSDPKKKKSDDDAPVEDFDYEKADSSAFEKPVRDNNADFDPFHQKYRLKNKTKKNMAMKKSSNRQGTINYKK
Protocol: as §1, §2

[2] = target: T4, GST (glutathione-S transferase alone) (UniProt P08515 1-218 = GST)
T4 construct: Purified GST used as negative control bait on glutathione sepharose beads; also called OST
Protocol: as §1, §2

[3] = target: B6
Protocol: as §1, §2

T4 sequence (P08515 whole entry): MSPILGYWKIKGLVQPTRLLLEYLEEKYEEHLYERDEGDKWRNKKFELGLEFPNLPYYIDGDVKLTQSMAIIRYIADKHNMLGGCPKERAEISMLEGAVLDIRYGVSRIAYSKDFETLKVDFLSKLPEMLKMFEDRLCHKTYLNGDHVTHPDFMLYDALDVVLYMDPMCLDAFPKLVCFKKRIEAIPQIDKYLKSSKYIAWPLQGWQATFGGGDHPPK

B1: ^35S-Methionine labeled NUC-1 (enzyme, C. elegans, UniProt Q17778 22-375, looked up)
chain: AFSCKDQSGNDVDWFAVYKMPIEKDDGSVTGLAGGVAWYYVDVNKKGTLTPSAKTLDDNDQAIAYTLQQYYDKQNDKTIFHVMYNDEPWGSKSTSGIKLEEILSNRVYSNYTHEDDSTSTAFGHTKGTIFFDGTSGVWLVHSVPLFPNPTKYEYPVSGHDYGQTMLCMTFKYAQLKSIGTQLFFNRPNIYSSNLPTNMAADNADLAKAIAGQYQKGQPFQSVIELETMAGYSFTNFAKSKEFNADLYDTLVAPTLKTDLVVETWRRGSEIPLDCKLTYHANDALSIHVGSTTAFSYTKDHSKMAHSADMTKPWVCIGDINRMTSQYVRGGGTTCISSSFLWKAYSVIATQNNCA
modifications: 35S-methionine labelled
binding result (GST-CRN-6): no binding
binding result (GST-NUC-1): no binding
binding result (GST-CRN-1): no binding

B2
binding result [1]: no binding

B3: ^35S-Methionine labeled CRN-4 (enzyme, C. elegans, UniProt Q10905 1-298, looked up)
chain: MAYQHCPFDTLLILDFETTSDAANQDYPCEVIQFAIVAYDVPNDKIREDISFNKYVKPVLNRTLTKNCVDFTGIPQRSIDTADTFDVVYEQFQQWLITLGLEEGKFAFVCDSRQDLWRIAQYQMKLSNIQMPAFFRQYINLYKIFTNEMDRMGPKELSATTNIGKMNEYYDLPTIGRAHDAMDDCLNIATILQRMINMGAKVTVNELLTCCASWRRQPLVYNKEWRSSFMDAGKIFERVLPLVVTTIRAGDFRLEMYGVCRYCRKGMDVCGTSHQQTPHDLYKNEEDPIHFAKIAGYY
modifications: 35S-methionine labelled
binding result (GST-CRN-3): no binding
binding result (GST-CRN-6): no binding

B4: ^35S-Methionine labeled CRN-5 (enzyme, C. elegans)
chain: MAGRLREMRCELSFLKNADGSACFSQGATCIWASCSGPGDVHASKASDEAMTLDISYRANCGDNKFNVLNNIIHSTLSNAINLELFPHTTISVTVHGIQDDGSMGAVAINGACFALLDNGMPFETVFCGVLIVRVKDELIIDPTAKQEAASTGRVLFSVCKGSDGHPEVCAMDAIGHWDFIQLEAAWSLAQPSASAIFDFYKTVMKRKLSVDEQ
binding result (GST-CRN-6): no binding
binding result [2]: no binding
binding result (GST-CRN-1): no binding

B5
binding result [3]: no binding

B6
binding result (GST-CRN-3): no binding
binding result (GST-CRN-6): no binding
binding result (GST-CRN-1): no binding

B7: GST-CRN-5 (other)
chain: MAGRLREMRCELSFLKNADGSACFSQGATCIWASCSGPGDVHASKASDEAMTLDISYRANCGDNKFNVLNNIIHSTLSNAINLELFPHTTISVTVHGIQDDGSMGAVAINGACFALLDNGMPFETVFCGVLIVRVKDELIIDPTAKQEAASTGRVLFSVCKGSDGHPEVCAMDAIGHWDFIQLEAAWSLAQPSASAIFDFYKTVMKRKLSVDEQ
notes: also called CRN-5 GST-fusion protein; not shown: GST carrier and the linker of vector pGEX4T-2
binding result [3]: no binding

B8: ^35S-Methionine labeled CYP-13 (enzyme)
chain: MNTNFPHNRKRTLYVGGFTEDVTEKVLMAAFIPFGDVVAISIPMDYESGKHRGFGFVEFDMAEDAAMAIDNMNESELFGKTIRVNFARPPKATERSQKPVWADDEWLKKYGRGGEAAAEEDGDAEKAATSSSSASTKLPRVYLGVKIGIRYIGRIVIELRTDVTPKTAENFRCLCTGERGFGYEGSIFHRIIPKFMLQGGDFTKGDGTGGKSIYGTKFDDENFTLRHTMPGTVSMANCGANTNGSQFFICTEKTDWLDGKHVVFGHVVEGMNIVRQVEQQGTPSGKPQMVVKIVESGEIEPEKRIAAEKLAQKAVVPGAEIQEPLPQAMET
notes: also called ^35S-CYP-13; CPY-13
binding result (GST-CRN-3): no binding
binding result (GST-CRN-6): no binding
binding result [2]: no binding
binding result (GST-NUC-1): no binding
